Measured values published in article doi:10.1101/2023.10.09.561523 (bioRxiv, 2023).

Target: the molecule itself
Assay: mass photometry

B1: SH3-domain containing protein 2 (SH3P2), purified full-length protein (natural protein, Arabidopsis thaliana, UniProt Q8VWF1 1-368, looked up)
chain: MDAIRKQASRLREQVARQQQAVFKQFGGGGYGSGLADEAELNQHQKLEKLYISTRAAKHYQRDIVRGVEGYIVTGSKQVEIGTKLSEDSRKYGSENTCTNGNVLTRAALNYGRARAQMEKERGNMLKALGTQVAEPLRAMVLGAPLEDARHLAQRYDRMRQEAEAQATEVARRQAKARESQGNPDILMKLESAEAKLHDLKSNMTILGKEAASALASVEDQQQKLTLERLLSMVESERAYHQRVLQILDQLEGEMVSERQRIEAPSTPSSADSMPPPPSYEEANGVFASQMHDTSTDSMGYFLGEVLFPYHGVTDVELSLSTGEYVVVRKVTGSGWAEGECKGKAGWFPYGYIERRERVLASKVSEVF
- stoichiometry N: 2
